We go through 47 sequences from the NTF2 design screens of Basanta et al. (2020).

The data set can be described thus: protease stability score; higher = more stable; yeast display proteolysis, trypsin and chymotrypsin.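 Note: relative to predicted unfolded state with 0 unfolded-like and 1 meaning tenfold more protease.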
“DEDMDISKHWAELWMKLEKTGDEEELRKLMDPHARIDFNGVDIHGMEFWLELLKREKDKFKNVKITLEEFRIYGDYVHFHVIIHQGDYHLRIEITIIVVNGRHKELIIRIK” displayed a protease stability score of -0.059.
The result for “DNKEKLMNKAFEWILELIITGDEDTLHELADPNARNHYGEFHHVGREETTRFLVEFNRRLGVDHVRFERMRVIDGKVHLHIEINVDGRRFESDLIFFKVDGRWKLNFVHFRHV” reads 1.27.
The result for “TEEERHIKEMLELFLEFFKTGNEDLFKELADPHVRLHLNINGKKERVHGMDHAVKWLSQLRVHSFHLKDERAVDGVNEVDQESDVEWNGQRFETTVRLHVYIVNGKLHHLSIEIK” reads 1.19; that for “THEEEIFRRIAELIIDALTTGDEQLLRDLADPHVRQILIIDGREITVHGREEVFELLKEHIDELRIHRVNIEHMDVVGNKVTLDGRMDGYYGDKRTRLEFRIHIDIVNGKLKELTITMR”, 2.16; that for “DEDDHFWERLTEIILHILQTGNEEALHRMLDPHMRLDYNGRSFHGRELAQKALMRFWEDLGVDHIRVKDRRVQGDKVHLHGEIIIDGRLHETREHWLIVNGRIKHVRLEIR”, 0.696.
The result for “DHEDELMERLARLFVHALQTGDEDLLRRYADPNTLINVNGKNLHGMEEESRFWKEIRIEHTEVERIHVQGNKSTVFVRVFFRIGDKHVHEHRILRLEFVDGRLRSVELERH” reads 1.69; that for “DEVEHLLELMFRLIIETIRTGDEKLLEHLVDPNAKSLIDGRDYHGREMARHWHNRVDHLNDVHINDRKVQGEKIELDVRVDGRVGDKRIDERVHIIAFKINGQWIIHKMEVR”, 0.991; that for “SEEEENSRRVLELFRRIFETGDEDTSRRLADPDARVEVGEFHSIGRESFARMLHHLWRELRWKDEKIEHIEVQGDKVHVNGINFVIYNGKEINLTVHLEMQKVDGRWHIHHFKIE”, 1.67.
With “SEEHHHYSELMHQLTEWMLTGNFEEWARYADPNTRARIDIDGRRLEVHGREEMMRVLKEHRKLMGVDHIEVRDRHVFNGRNELIFILHQGDKERHSHITIVVINGQIKEVDIILR”, the protease stability score came to 1.61.
The result for “SEEHKRIEKLLRRLQDALKTGDERDIMNLLDPNVRIEINGKDLIGREVWAKIMHHLRVEDSEINIHHSRSQGNFLESDIETHRHIHVDGKDIDLTWEEHVVIIKVDGKWKIERVHIR” reads 1.17; that for “SEDEEEAERFLRMFFELIRTGDERTIERLLDPHVRIDIDGRDIHGRERAQEHVQHWYRHIRIEDDQIKEFHIQGNKVEHHGRRRGSFNGVTYEVTVHETVLKVDGVWYMKEVHVR”, 0.891.
Under “DESEKYLKDAVEILIRVIRTGDEHTMKELLDPNVRLHAENHESHGRELLEWWTRRIDHVNDSKIEDMRTVGDYVELDMRLHTVFNGQTIDIKTTFIIIKVNGKWQLRSVHIH” stands 1.26; under “DEEDRDAEFFMRLWMRLHKTGDEDQLRELLDPDVRVRFENREFHGREELIKFIHRHRREARTDVKIRDFRVQGDKVIVHGELILQFDGVRFNHDLILITRKIDGRWRIEEIEVR”, 1.84.
The result for “SEDKEEAEEFVRIFNEALITGDFEFIEHLADPNVKYRQGEYHEHGRESLSHMFRFLGWSNVKIHLRHIKFYGDKIEVHGEVRIDGRTHWVNSYITKYDGRWYLTSLQIE” reads 1.21; that for “DEDEHFAENIIRILLHLIVTGDEDQLERLIDPHVKVTIGDKEFHGRLADEILREEIRIKRVHLRDFRIVNGRAESRFKLVGNWNGVETEFTKSVYIDKINGRWIITERHIT”, 1.16; that for “HEEKELVNRSVELSYRVLKTGDEHTLEELLDPDAKTRLNINGKNEKLVGRENVLHIVTWFLDFLGIKHVELRDVRYVGDKVHIDMQIDVNGRHSRWHLIAEKIDGRWFMHSIQVEVH”, 0.18.
In the case of “SELEELVKRILKFILHSWDTGDEEFDKHMADPNVRVIYNGVDLHGMHTKDDLIKRLGWEQESRIRSIRAIGEKAHMDVELVWRFDGQQRDHDTRVHLDIVNGRSKNMEIRFK”, the protease stability score amounted to 0.165.
The result for “DEEEEDVRRAVEIWERSLRTGDEHEVKRFVDPHTRLEVDGREFHGREQFIEVMRHWRFRHFQIRDFRVIDGRADVDAISEVDYNGRRFEVKTIIIVIKINGRWVLHSLNIR” reads 1.63; that for “DEIEHLIRRIMEEIVHVFETGDEEKLEELMDPNTIFIIGDKRYVGREAVDVLLRRADVMTRFHIKSMRTVGDKIDLNTSIHVHFDGVHREIDTHVIARKVDGRWHWDSVRVE”, 1.2.
The result for “DEQEHVAERIVNDLNHSMETGDEHRIRELVDPHVRVIIGDKELHGMEEFIRWLREFGVERIRVRLKRFSFVGNKIRLDTVMNINGQNVDTKLIIEKVDGRWLLRSIHVD” reads 2.18; that for “SEERDHARRALNKMWKAIETGDEDTFEKLMDPDVRIEIGDKEIHGRELYVKIWQEMRFHIRRTRITDSKTFNGRVDIEFEEDFEIIVGDKIERYDYRVTFHSLKVNGRWEHSSMRLH”, 0.202.
“SEREHEVQESLEILIKLWHTGDFRAISEYADPNVRSDVNGKEFHGRENVEEALERSMKDLGVKVVHSEHIEHLEIYGNKVIVHVRIDGEVDGKRFHSHFIMYTTKVDGQWRVHEIRVH”: the protease stability score was 1.03.
The result for “DELEEELDQFQKLMVESSKTGDEDTEKKLADPNVRVDINGVILHGMENFVEFMRHWRIKHIHNKEVRFINGRAHVTGDVEGHVNGRDTRTRVTLIIIKINGRWFIEEVKFD” reads 1.37.
Under “TEEDRETEKFLRILQEVHRTGDWRRFDEFLDPNVRIHIGDKEYHGREEFTRFFKEMGIDHHEVKHYRLVDGQLDLDVTERFNGVTVKTKLITHKFDGRWLITEIRVK” stands 1.19; under “DQHERELEHAMEMLEKILKTGDERLFEHYADPHIRLEIEINGRRIDDHGRDLVLHLWRKMGADHMNIRSIDIQGDKLILNSTIEFNGQIHRSRFISLKVNGRWFIESVRLQDT”, 0.907.
As for “DEHQRMLELFMRLLMHSQETGDEKTLRELADPNARIHVGDKDYVGREHAAKLLVEWRIHDLELRTVDVQGDKIQWEGELEGEYNGKQDRYETYIIVTKIDGRWLEERVIFK”, the protease stability score is 1.3.
Consider “DEDEELARQIWELFVRAEETGDEELLEKLIDPHTRLHIGDKVFHGRDAIKHIRKRVDHVKRVHVESIRVFDGRVEIHSRQRWEINGVEVEQKFRFTMQKINGRWIMHDMSIL”, for which the protease stability score was determined as 1.79.
The result for “SELEELMKRLVKDWLHNWITGNEDRIWELADPDALVHFDGVISHGREEVIKLIRRFTEELRIHRIQIDHIKIQGDKIHIHLTEDGTIGDKRKEINVEIILFIINGKFKSSEIRIR” reads 1.49; that for “DEDERAYEESVRTFLENNLTGNEEILHRLMDPHVKTDYGDKRYHGMEEATEMIRRLGVNHFHLNSVHHQGDKVHLHGRVIVNGREFQVHIESKKINGRWVIRKVVID”, 1.27; that for “SELEKFHEESLKSVLESWITGDEHLNRDLVDPDAKLNVNGREHHGWELITILLSQMRVHDFKRRDIRFQGDKIFIDGEIDGEINGQRIRLRIDIIAVKVNGKWLIKEVRVH”, 1.69.
Turning to “EEEEWLVKIAIRILIETFRTGDFHLWEELADPNTRLRIGNFEFHGREEVLHSLIEMRIHSVHIEDHKVIDGRLHVDSRLLGTFNGQHINRETRLISLKINGVWFIKSFEFV”, the protease stability score was 0.648.
Under “DEDEEDVDRVSRRWARAMTTGDEDELRELLDPNTRYVQGDKHLHGRTQFERHLREMRFIIHDVRVDNITIIDGRMHIHGHVVGELRTEDHEHHFIFRFHLIVMKINGKWLIKHVDVQ” stands 0.819; under “DDDEHNAHHAVEIWIHLLRTGDEHMLERMFDPNTRIRFNGREFHGREEAHRFIEELLRTLGVDHSHITIHDMKIQGNKVHVDTRLTLIVGDKTYSRNTHLVILKVNGRWWLHSMHFN”, 1.41; under “DENRRHELEIAQILLHAWVTGDEHILRRFADPDMQFVLEFDGKTIDLHGRELVISFFRDLVDKLGVDHITLESHRVINGRTHIDTRVIFNGVDREEKIHIHIVNGRLKHLELRVH”, 1.22.
The result for “DRHDKELERFTSDWLTSWHTGDFHRILELLDPDVRYIYGDKEWHGRENVHRAIKELLERLGIDHLHLQRVEIQGEKFKIQTQVHVGDKTINLIIHILVVDGRVREVNMDEK” reads 1.33.
On to “TEDEKMLKESLERLLYTLHTGDEEFNKRLMDPEVRIVIGDKELHGMELARKFWEKLYKDLGADHVHMDVKHVRSIGDKVEVDSQLIFRVGDKEIRVDTKLFSHKFDGRWRLRYEYVD”, for which the protease stability score is 1.39.
Under “NERDERVEELMKLWFESLRTGDWRQMRNLLDPHARVIMLVGDKHVELHGWEAMLLLIHQFRNIRLRIDSTRLQGDKLEIEGTSEFDGKHRNVVIEIQVINGRIHTIKYIED” stands 2.1; under “DERSRNLEHYAKDLVEDWLTGDFRRYSKLADPNALTIFNGVELHGRELVIRMMNELRHRIDHLEIRIEDSHIQGNKVKIDSHRIMNVNGVEYRTKTEEWFDIVDGRVKSVEIRVH”, 0.426; under “SEEDEMSKRFLDDLLHNLRTGDFDRLKNELDPHAKLVVDGQELHGMELASKRDLEMRVNHLEIRHVEIQGEWIHLKGEMDGEVNGKRNIHEVHVLLFKINGRWYVREVWIR”, 1.41.
The result for “SEEEQRQHEFMILWLEYFRTGNEEELLELIDPNVLLVMDINGRNELNHGRELWHEFMNRFWEKIKNATFIVHDKRVINGRIHMDGRLDINGREYTVHLHIEVINGVTKRFEIRIR” reads 1.68; that for “DHDEREYHHFVQILIHSMRTGDWVKLEELMDPHVLIRIGDKELHGREELYRFMLQARIELEVKDYRLYGDKVELDTLLSMLIGDKLSETDSRMKLEKVDGKWIIREIFVDPETKKRLLD”, 1.64; that for “DETDEYARNMMEIFVHLLATGNEEKMLEYMDPNTRHNFNGVVLHGRDVLREWWHRWLKEIRITRTRIDHVHTQGEYVHANTTVEGTIDGRKFELETRVHLHVVNGRIKESSIKLN”, 1.51.
Under “HEEEKLARTFSEVVERSLYTGDEDSLKRLMDPHVRMNVNGVRHIGMELAKEWLHRYIRQLGIDHSTIRHSHDEIQGEKVIVRLHGELVYNGVSREVELIIHVNKVNGVWTISELLVILK” stands 1.25.
On to “DEEEKEIKEMLHEYLRAVETGDEHTLHRLMDPHVRIDVNGRQVVGREEWLKILRELGIKVSELIFRDIKFQGDKVNIDAEERLHYNGRTVTTRVTITAWKYDGRWTVQSKKVD”, for which the protease stability score was 2.04.
The result for “SEDDETIERASRLLVEDHDTGDWESWEKNADPNMRLVIGDKDVVGRENVVEHLHRLRKKMGVKHVHLRVESIEVQGDKIRQDGRLLIIVNGQELRIEVRIVAIKVNGQWINRMVDVK” reads 1.08.
The result for “DEEDKKVKYFLNEWLHAVKTGDEEHLKRLADPRTYEQVGDKHYHGRETFRRFLHDLLEEMRFHRIHIKFSQMVNGVFYVNGELDGTFDGRRHRTDMRLEFEVVNGRIHELRIEIV” reads 1.18; that for “DEIERLFRELVNLIFELLRTGNFRKLEELLDPHTRLTIGDKYYHGRESVIEYLKHLWEQLGVDHMEFHVKRVDIQGEKVNADTEIRIKIGDKTYFRDTVLIFLKIDGRWEIRAWEEK”, 1.52.
